The values that follow are results of earlier work, collected in patent US20120245117A1, “METHODS OF TREATING SQUAMOUS CELL LUNG CANCER WITH 4-IODO-3-NITROBENZAMIDE IN COMBINATION WITH GEMCITABINE AND CARBOPLATIN” (priority 2011, published 2012).

The subject of the data set is SqCLC. Conditions: SqCLC patients; combination with carboplatin/paclitaxel; cited from earlier work.

B1: CP-751,871: an anti-IGF-1R monoclonal antibody (antibody, chains of the INN, looked up)
heavy: EVQLLESGGGLVQPGGSLRLSCTASGFTFSSYAMNWVRQAPGKGLEWVSAISGSGGTTFYADSVKGRFTISRDNSRTTLYLQMNSLRAEDTAVYYCAKDLGWSDSYYYYYGMDVWGQGTTVTVSSASTKGPSVFPLAPCSRSTSESTAALGCLVKDYFPEPVTVSWNSGALTSGVHTFPAVLQSSGLYSLSSVVTVPSSNFGTQTYTCNVDHKPSNTKVDKTVERKCCVECPPCPAPPVAGPSVFLFPPKPKDTLMISRTPEVTCVVVDVSHEDPEVQFNWYVDGVEVHNAKTKPREEQFNSTFRVVSVLTVVHQDWLNGKEYKCKVSNKGLPAPIEKTISKTKGQPREPQVYTLPPSREEMTKNQVSLTCLVKGFYPSDIAVEWESNGQPENNYKTTPPMLDSDGSFFLYSKLTVDKSRWQQGNVFSCSVMHEALHNHYTQKSLSLSPG
light: DIQMTQFPSSLSASVGDRVTITCRASQGIRNDLGWYQQKPGKAPKRLIYAASRLHRGVPSRFSGSGSGTEFTLTISSLQPEDFATYYCLQHNSYPCSFGQGTKLEIKRTVAAPSVFIFPPSDEQLKSGTASVVCLLNNFYPREAKVQWKVDNALQSGNSQESVTEQDSKDSTYSLSSTLTLSKADYEKHKVYACEVTHQGLSSPVTKSFNRGEC
For the molecule B1, the response rate is reported as about 78% and the toxicity result is recorded as “strong toxicity”.
